According to patent publication US20240390509A1, “ANTIBODY-DRUG CONJUGATE, PREPARATION METHOD THEREFOR, AND PHARMACEUTICAL USE THEREOF” (SHANGHAI HANSOH BIOMEDICAL CO., LTD., priority 2021, published 2024):

Tests used:
Parameters in all cases: species or system nude mice (Balb/c Nude)
[1] = tested on: human gastric cancer NCI-N87 tumor cell transplant mouse model; test: Dose-dependent in vivo anti-tumor effect, NCI-N87 transplant mouse model (Example 11); settings: NCI-N87 xenograft, 1 mg/kg IV Q2W, day 28
Protocol: In order to further study the inhibitory effect of antibody-drug conjugate on tumors formed in vivo, the Trop-2 positive tumor cell human gastric cancer NCI-N87 tumor cell transplant mouse model was used to evaluate the inhibitory effect of candidate molecule on tumor proliferation in vivo. 5×10^6 NCI-N87 cells were injected subcutaneously into 6-week-old nude mice (Balb/c Nude) weighing about […]. After 8 days, the average tumor volume reached 175 mm^3 and grouping was performed, and the antibody-drug conjugate was started to be injected intravenously every 2 weeks at a dose of 2 mg/kg or 1 mg/kg. The control used human IgGI isotype control antibody at a dose of 2 mg/kg. There were 5 mice in each group of the control group or the administration group. The tumor inhibition rate was calculated by measuring the tumor volume.

[2] = tested on: human head and neck cancer squamous cell carcinoma FaDu tumor cell transplant mouse model; test: In vivo efficacy, FaDu transplant mouse model; settings: FaDu xenograft, day 17
Protocol: In order to further study the inhibitory effect of antibody-drug conjugate on tumors formed in vivo, the Trop-2 positive tumor cell human head and neck cancer squamous cell carcinoma FaDu tumor cell transplant mouse model was used to evaluate the inhibitory effect of candidate molecule on tumor proliferation in vivo. The cell suspension mixed with Matrigel in equal proportions was added, and 5×10^6 FaDu cells per animal were injected subcutaneously into 6-week-old nude mice (Balb/c Nude) weighing about […]. After 8 days, the average tumor volume reached 133 mm^3 and grouping was performed, and the antibody-drug conjugate was started to be injected intravenously at a single dose of 3 mg/kg or 1 mg/kg. The control used human IgGI isotype control antibody at a dose of 3 mg/kg. There were 5 mice in each group of the control group or the administration group. The tumor inhibition rate was calculated by measuring the tumor volume.

[3] = tested on: lung cancer Calu-3 tumor cell transplant mouse model; test: In vivo efficacy, Calu-3 transplant mouse model; settings: Calu-3 xenograft, 10 mg/kg IV single dose, day 21
Protocol: In order to further study the inhibitory effect of antibody-drug conjugate on tumors formed in vivo, the Trop-2 positive tumor cell lung cancer Calu-3 tumor cell transplant mouse model was used to evaluate the inhibitory effect of candidate molecule on tumor proliferation in vivo. The cell suspension mixed with Matrigel in equal proportions was added, and 2×10^6 Calu-3 cells per animal were injected subcutaneously into 6-week-old nude mice (Balb/c Nude) weighing about […]. After 8 days, the average tumor volume reached 148 mm^3 and grouping was performed, and the antibody-drug conjugate was started to be injected intravenously at a single dose of 10 mg/kg. The control used human IgG1 isotype control antibody at a dose of 10 mg/kg. There were 5 mice in each group of the control group or the administration group. The tumor inhibition rate was calculated by measuring the tumor volume.

B1: DS-1062-compound D (y = 4) (conjugate, chains of the INN, looked up)
VH: QVQLVQSGAEVKKPGASVKVSCKASGYTFTTAGMQWVRQAPGQGLEWMGWINTHSGVPKYAEDFKGRVTISADTSTSTAYLQLSSLKSEDTAVYYCARSGFGSSYWYFDVWGQGTLVTVSS
VL: DIQMTQSPSSLSASVGDRVTITCKASQDVSTAVAWYQQKPGKAPKLLIYSASYRYTGVPSRFSGSGSGTDFTLTISSLQPEDFAVYYCQQHYITPLTFGQGTKLEIK
modifications: compound D drug conjugate
Question: Which Tumor inhibition rate [1] does the source give for B1 here?
Answer: 78.2%

B2: DS-1062 (conjugate, chains of the INN, looked up)
VH: B1 VH
VL: B1 VL
modifications: deruxtecan payload
Question: Which results are given for B2?
Answer: Tumor inhibition rate ([2]; 1 mg/kg IV single dose): 74.8%; Tumor inhibition rate ([2]; 3 mg/kg IV single dose): 200%; Tumor inhibition rate [3]: 85.61%
